For the experiment, the target named is T1, monkey LAG-3 on cells (HEK293-cLAG-3 stable cell line) (monkey, UniProt P18627 24-525 (human entry)).
T1 construct: Full-length monkey (Chinese monkey) LAG-3 gene expressed on HEK293 cells
T1 chain: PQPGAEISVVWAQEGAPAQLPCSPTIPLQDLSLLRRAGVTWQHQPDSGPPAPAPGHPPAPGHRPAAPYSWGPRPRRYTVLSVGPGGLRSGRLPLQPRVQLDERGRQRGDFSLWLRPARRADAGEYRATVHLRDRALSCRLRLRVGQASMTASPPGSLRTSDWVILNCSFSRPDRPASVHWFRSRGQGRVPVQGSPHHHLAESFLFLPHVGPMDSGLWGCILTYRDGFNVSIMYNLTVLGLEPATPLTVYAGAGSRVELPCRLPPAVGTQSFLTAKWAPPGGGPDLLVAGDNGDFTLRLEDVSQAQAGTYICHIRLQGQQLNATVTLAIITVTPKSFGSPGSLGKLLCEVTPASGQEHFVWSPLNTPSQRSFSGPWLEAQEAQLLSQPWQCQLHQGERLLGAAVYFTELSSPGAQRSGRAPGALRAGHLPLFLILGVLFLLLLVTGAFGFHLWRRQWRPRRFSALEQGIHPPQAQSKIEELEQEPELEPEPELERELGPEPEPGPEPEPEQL
Put plainly: FACS, HEK293-cLAG-3, antibody 0.000 nM. An excerpt: The pIRES plasmid with the monkey-derived full-length gene was transfected into the HEK293 cell line to construct a HEK293 stable cell line containing monkey LAG-3 (herein referred to as HEK293-cLAG-3 stable cell line). The HEK293-hLAG-3 stable cell line and HEK293-cLAG-3 stable cell line were expanded in a T-75 cell culture flask to a 90% confluence. The medium was aspirated, and the cells were washed with HBSS (Hanks' Balanced Salt Solution) 1-2 times, then treated with a enzyme-free cell dissociation fluid (Versene solution: Life technology) and the cells were collected. The cells were washed with HBSS buffer for 1-2 times. After counted, the cells were diluted with HBSS to 1-2×10⁶ cells per ml, added with 1% goat serum blocking solution, incubated on ice for 20-30 minutes, and then washed with HBSS for 2 times by centrifugation. The collected cells were suspended in the FACS buffer (HBSS+1% BSA) to 2×10⁶ cells/ml, added as 100 microliters per well to a 96-well FACS reaction plate, added with 100 microliters per well of the antibody sample to be tested, incubated on ice for 1-2 hours. The plate was washed twice with the FACS buffer by centrifugation, added with 100 microliters of fluorescent (Alexa 488)-labeled secondary antibodies per well, and incubated on ice for 0.5-1.0 hours. The plate was washed 2-3 times with FACS buffer by centrifugation, added with 100 μl fixative solution (4% Paraformaldehyde) per well to suspend the cells. 5-10 minutes later, it was washed 1-2 times with FACS buffer by centrifugation. The cells were suspended with 100 microliters of FACS buffer, FACS (FACSCalibur, BD) was used for detection and the results were analyzed.

B1: 105F1E10 mouse-human chimeric antibody (antibody, V domains shown)
VH: EVQLQQSGPELVKPGASVKMSCRASGYTFTDFKMHWMKQSHGKSLEWIGYIAPNNGGTAYNQKFRGKATLTVNESSNTAYMELRSLTSEDSAVYYCVDWDDVDYWGQGTTLTVSS
VL: DIKMTQSPSSMYASLGERVTITCKASQDINSYLSWFQQKSGKSPKTLIYRANRLVDGVPSRFSGSGSGQDYSLTISSLEYEDMGIYYCLQYVEFPLTFGAGTKLELK
notes: also called mAb009-105F1E10
In turn, B1 registered a Mean fluorescence intensity of 2.72.

B2: 405B8H3 mouse-human chimeric antibody (antibody, V domains shown)
VH: QVQLQQSGAELVRPGASVTLSCKASGYTFTDYEMHWVKQTPVHGLEWIGATDPETGNSAYNQKFKGKAIMTADKSSSTAYMELRSLTSEDSAVYYCISTGWNDWGQGTSLTVSS
VL: DIKMTQSPSSMYASLGERVTITCKASQDINSYLSWFQQKPGKSPKTLIYRADRLLDGVPSRFSGSGSGQDYSLTISSLEYGDMGIYYCLQYDEFPYTFGGGTKLEIK
notes: also called mAb103-405B8H3
B2 displayed a Mean fluorescence intensity of 2.9.

B3: 409B11E12 mouse-human chimeric antibody (antibody, V domains shown)
VH: QVQLQQSGAELVRPGASVTLSCKASGYTFTDYEMHWVKQTTVHGLEWIGATDPETSYSAYNQKFKGKAILTADKSSSTAYMELRSLTSEDSAVYYCIATGWNDWGQGTSLTVSS
VL: DLKMTQSPSSMYASLGERVTITCKASQDINSYLSWFQQKPGKSPKTLIYRANRLLDGVPSRFSGSGSGQDYSLTISSLEYEDMGIYYCLQYDEFPYTFGGGTKLEIK
notes: also called mAb104-409B11E12
The molecule B3 came in with a Mean fluorescence intensity of 2.84.

B4: 409D4E10 mouse-human chimeric antibody (antibody, V domains shown)
VH: QVQLQQSGAELVRPGASVTLSCKASGNTFTDYEMHWVKQTPVHGLEWIGATDPETDNTAYNQKFKGKAILTTDKSSSTAYMELRSLTSEDSAVYYCITSGWNDWGQGTSLTVSS
VL: DIKMTQSPSSMYASLGERVTITCKASQDINSYLSWFQQKPGKSPKTLIYRANRLLDGVPSRFSGSGSGQDYSLTISSLEYEDMGIYYCLQYNEFPYTFGGGTKLEIK
notes: also called mAb112-409D4E10
Take B4: the Mean fluorescence intensity turned out to be 2.99.

These data come from patent US20210155689A1 (SHANGHAI PHARMAEXPLORER, published 2021).
